Reference: patent publication US20090202499A1, “Human Telomerase Reverse Transcriptase Peptides” (priority 2006, published 2009)

How the values were obtained:
Details in all cases: remark: other sources report otherwise
[1] = molecular target: purified HLA-B*0702 (human); test: competition solid-phase radioimmunoassay on purified HLA-B7, radiolabeled standard peptide
[2] = molecular target: purified HLA-B*0702 (human); test: competition radioimmunoassay on purified HLA, radiolabeled standard peptide
[3] = molecular target: purified HLA-B*0801 (human); test: as above
[4] = molecular target: purified HLA-B*3501 (human); test: as above
[5] = molecular target: purified HLA-B*5301 (human); test: as above
[6] = molecular target: HLA-B*0702 on T2-B7 cells (human); test: MHC stabilization assay on T2-B7 cells (flow cytometry), relative to a reference peptide

Row | IC50 [1] | IC50 [2] | IC50 [3] | IC50 [4] | IC50 [5] | RA (relative avidity) [6] | Binder
1 | 239 nM | 239 nM | 217 nM |  |  |  | DPRRLVQLL [hTRT peptide p444 (…)]
2 |  |  | 37 nM | 1020 nM | 2200 nM |  | RPSFLLSSL [hTRT peptide p342 (…)]
3 |  |  |  |  |  | 4.7 | RPAEEATSL [hTRT peptide p277 (…)]
